Assay [1] deals with T1, human FcγRIa transiently expressed on CHO-S cells (human, UniProt P12314 16-374).
T1 construct: whole, on cells; also called cell surface expressed FcγRIa
Put plainly: flow cytometry on CHO-S cells transiently expressing human FcγRIa, PE-conjugated goat anti-human IgG F(ab')2, % PE+ cells. For orientation: In flow cytometry, cells or beads pass a laser one at a time.
Experimental: Cells were centrifuged, supernatant was removed, and cells (30,000 cells in 50 μL) were incubated with 50 μL of the antibody dilutions for 30 min at 4° C. Cells were washed twice with GMB FACS buffer and incubated with 50 μL secondary antibody (PE-conjugated goat-anti-human IgG F(ab′)2; 1:500) for 30 min at 4° C., protected from light. Cells were washed twice with GMB FACS buffer and resuspended in GMB FACS buffer supplemented with 2 mM EDTA and DAPI viability marker (1:5,000). Antibody binding to viable cells was analyzed by flow cytometry on an Intellicyt iQue PLUS Screener (Intellicyt Corporation) using FlowJo software by gating on PE-positive, DAPI-negative cells. Binding curves were analyzed using non-linear regression analysis (four-parameter dose-response curve fits) in GraphPad Prism.

For assay [2], the target named is human PD-1 expressed on reporter Jurkat T cells (PD-1 Effector Cells) (human, UniProt Q15116 25-288). Description: cell-based or functional assay.

Where “and” joins values, the source holds several entries; their conditions need not be identical. Equal values may be shown once.

Chain of human PD-1 expressed on reporter Jurkat T cells (PD-1 Effector Cells) (Q15116 25-288): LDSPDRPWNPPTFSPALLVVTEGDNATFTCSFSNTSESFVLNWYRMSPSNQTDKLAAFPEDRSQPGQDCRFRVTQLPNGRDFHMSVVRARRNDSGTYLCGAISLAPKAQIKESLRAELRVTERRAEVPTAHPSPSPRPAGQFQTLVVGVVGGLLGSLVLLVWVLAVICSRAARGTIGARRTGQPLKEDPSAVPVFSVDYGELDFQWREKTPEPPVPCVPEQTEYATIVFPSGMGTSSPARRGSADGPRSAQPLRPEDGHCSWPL
T1 sequence (P12314 16-374): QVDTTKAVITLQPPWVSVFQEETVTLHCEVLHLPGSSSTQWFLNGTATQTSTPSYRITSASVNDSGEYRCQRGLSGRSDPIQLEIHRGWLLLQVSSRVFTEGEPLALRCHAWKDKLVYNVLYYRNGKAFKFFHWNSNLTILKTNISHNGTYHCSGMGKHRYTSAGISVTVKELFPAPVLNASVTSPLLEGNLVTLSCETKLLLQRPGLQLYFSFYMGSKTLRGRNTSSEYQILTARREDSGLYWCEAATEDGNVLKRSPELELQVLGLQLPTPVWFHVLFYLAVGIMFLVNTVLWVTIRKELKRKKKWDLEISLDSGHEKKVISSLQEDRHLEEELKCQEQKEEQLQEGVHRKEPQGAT

B1: IgG1-ctrl (antibody)
heavy: not shown
light: EIVLTQSPGTLSLSPGERATFSCRSSHSIRSRRVAWYQHKPGQAPRLVIHGVSNRASGISDRFSGSGSGTDFTLTITRVEPEDFALYYCQVYGASSYTFGQGTKLERKRTVAAPSVFIFPPSDEQLKSGTASVVCLLNNFYPREAKVQWKVDNALQSGNSQESVTEQDSKDSTYSLSSTLTLSKADYEKHKVYACEVTHQGLSSPVTKSFNRGEC
notes: also called IgG1-b12 with wild-type Fc region
Turning to B1, the “EC50 (read off the curve)” value in assay [1] was approximately 0.01 mg/L.

B2: IgG1-PD1 (antibody)
heavy: QVQLVESGGGLVQPGTSLRLSCSVSGFSLYSYNMGWVRQAPGKGLEYIGIISGGTIGHYASWAKGRFTISRDTSKTTLYLQMNSLTTEDTATYFCARAFYDDYDYNVWGPGTLVTVSSASTKGPSVFPLAPSSKSTSGGTAALGCLVKDYFPEPVTVSWNSGALTSGVHTFPAVLQSSGLYSLSSVVTVPSSSLGTQTYICNVNHKPSNTKVDKRVEPKSCDKTHTCPPCPAPEFERGPSVFLFPPKPKDTLMISRTPEVTCVVVDVSHEDPEVKFNWYVDGVEVHNAKTKPREEQYNSTYRVVSVLTVLHQDWLNGKEYKCKVSNKALPAPIEKTISKAKGQPREPQVYTLPPSREEMTKNQVSLTCLVKGFYPSDIAVEWESNGQPENNYKTTPPVLDSDGSFFLYSKLTVDKSRWQQGNVFSCSVMHEALHNHYTQKSLSLSPG
light: AIQLTQSPSSLSASVGGTVTITCQSSQSVYGNNQLSWYQQKPGQPPKLLIYQASKLETGVPSRFRGSGSGTQFTLTISSLQSEDFATYYCAGGYSSSSDTTFGGGTEVVVKRTVAAPSVFIFPPSDEQLKSGTASVVCLLNNFYPREAKVQWKVDNALQSGNSQESVTEQDSKDSTYSLSSTLTLSKADYEKHKVYACEVTHQGLSSPVTKSFNRGEC
For the molecule B2, the “EC50 of PD-1/PD-L1 checkpoint blockade (luminescence, reporter assay)” value in assay [2] is 0.165 µg/mL and 1.12 nM.

For orientation: EC50 (read off the curve) means the midpoint of the concentration-response curve. High values mean a need for much substance, low ones an effect from little substance.
